Laboratory results taken from patent publication US12037595B2, “Rust resistance gene” (Commonwealth Scientific and Industrial Research Organisation, priority 2013, dated 2024).

Experiments:
[1] = biological target: T1, Wheat Lr67 (susceptible) protein, Lr67(sus), SUT sugar transporter, SEQ ID NO:4 (Triticum aestivum, UniProt W5ELX6); test: Concentration-dependent uptake of [14C] glucose in yeast expressing Lr67(sus); format: cell-based; settings: [14C] glucose uptake; Lr67(sus) expressed in hexose transport deficient Saccharomyces cerevisiae EBY.VW4000; Lineweaver-Burk linear regression
T1 construct: D-genome copy) in pRS416 with ADH1 promoter, expressed in S. cerevisiae EBY.VW4000 (hexose transport deficient)
T1 sequence (W5ELX6 1-514): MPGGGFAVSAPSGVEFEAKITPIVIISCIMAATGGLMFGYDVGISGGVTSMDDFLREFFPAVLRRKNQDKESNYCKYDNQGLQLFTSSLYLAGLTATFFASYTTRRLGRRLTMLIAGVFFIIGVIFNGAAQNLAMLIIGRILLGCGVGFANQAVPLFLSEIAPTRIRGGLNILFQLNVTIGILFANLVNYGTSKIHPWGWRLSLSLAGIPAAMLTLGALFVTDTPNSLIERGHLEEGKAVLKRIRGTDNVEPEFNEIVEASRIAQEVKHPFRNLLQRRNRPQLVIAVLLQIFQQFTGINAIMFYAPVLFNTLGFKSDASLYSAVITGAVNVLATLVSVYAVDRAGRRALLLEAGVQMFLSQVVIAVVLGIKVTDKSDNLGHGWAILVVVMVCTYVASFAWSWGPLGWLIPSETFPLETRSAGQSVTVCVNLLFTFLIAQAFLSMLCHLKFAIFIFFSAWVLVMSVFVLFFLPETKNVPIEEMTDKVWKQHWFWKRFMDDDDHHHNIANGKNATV
Procedure: (§1) The following experiments were completed using the protein coding regions for the Lr67 polypeptides (resistant and susceptible alleles) cloned into the yeast expression vector pRS416. This vector contained the constitutive ADH1 promoter and CYC1 terminator for expression of the inserted coding regions. The yeast strain employed was a hexose transport deficient variant of Saccharomyces cerevisiae named EBY.VW4000. Uptake was determined using radio labelled [^14C] glucose with incorporation radio-assayed by liquid scintillation counting.
(§2) The Lineweaver-Burk equation was used to convert data for linear regression analysis.

[2] = substrate: OC[C@H]1OC(O)[C@H](O)[C@@H](O)[C@@H]1O; test: cells, lysate or membranes; settings: other: [14C] glucose uptake; Lr67(sus) expressed in hexose transport deficient Saccharomyces cerevisiae EBY.VW4000; Lineweaver-Burk linear regression
[3] = system: hexose transport deficient variant of Saccharomyces cerevisiae named EBY.VW4000; test: Glucose uptake by yeast cells expressing Lr67 polypeptides, radio labelled [14C] glucose; format: cell-based; settings: 100 μM [14C] glucose for 10 minutes, tested at 2 minute intervals, vs empty vector, FIG. 11
Description: as §1, with “EBY.VW4000.” for “EBY.VW4000. Uptake was determined using radio labelled [^14C] glucose with incorporation radio-assayed by liquid scintillation counting.”
as §2

Row | Molecule | Vmax [1] | Km [2] | Glucose uptake over time [3]
1 | OC[C@H]1OC(O)[C@H](O)[C@@H](O)[C@@H]1O (stereo partly shown) [glucose] | 3.02 nmol min^−1 g FW^−1 | – | –
2 | Wheat Lr67 (susceptible) protein, Lr67(sus), SUT sugar transporter, SEQ ID NO:4 (Triticum aestivum) (protein) MPGGGFAVSAPSGVEFEAKITPIVIISCIMAATGGLMFGYDVGISGGVTSMDDFLREFFPAVLRRKNQDKESNYCKYDNQGLQLFTSSLYLAGLTATFFASYTTRRLGRRLTMLIAGVFFIIGVIFNGAAQNLAMLIIGRILLGCGVGFANQAVPLFLSEIAPTRIRGGLNILFQLNVTIGILFANLVNYGTSKIHPWGWRLSLSLAGIPAAMLTLGALFVTDTPNSLIERGHLEEGKAVLKRIRGTDNVEPEFNEIVEASRIAQEVKHPFRNLLQRRNRPQLVIAVLLQIFQQFTGINAIMFYAPVLFNTLGFKSDASLYSAVITGAVNVLATLVSVYAVDRAGRRALLLEAGVQMFLSQVVIAVVLGIKVTDKSDNLGHGWAILVVVMVCTYVASFAWSWGPLGWLIPSETFPLETRSAGQSVTVCVNLLFTFLIAQAFLSMLCHLKFAIFIFFSAWVLVMSVFVLFFLPETKNVPIEEMTDKVWKQHWFWKRFMDDDDHHHNIANGKNATV | – | 73 µM | capable of transporting glucose at a higher rate than yeast cells expressing the Lr67 resistant allele or empty vector
3 | Lr67(res): Wheat Lr67 (resistant) protein, 514 amino acids, arginine at position 144 and leucine at position 387 (protein, listed as Triticum aestivum) MPGGGFAVSAPSGVEFEAKITPIVIISCIMAATGGLMFGYDVGISGGVTSMDDFLREFFPAVLRRKNQDKESNYCKYDNQGLQLFTSSLYLAGLTATFFASYTTRRLGRRLTMLIAGVFFIIGVIFNGAAQNLAMLIIGRILLRCGVGFANQAVPLFLSEIAPTRIRGGLNILFQLNVTIGILFANLVNYGTSKIHPWGWRLSLSLAGIPAAMLTLGALFVTDTPNSLIERGHLEEGKAVLKRIRGTDNVEPEFNEIVEASRIAQEVKHPFRNLLQRRNRPQLVIAVLLQIFQQFTGINAIMFYAPVLFNTLGFKSDASLYSAVITGAVNVLATLVSVYAVDRAGRRALLLEAGVQMFLSQVVIAVVLGIKVTDKSDNLGHGWAILLVVMVCTYVASFAWSWGPLGWLIPSETFPLETRSAGQSVTVCVNLLFTFLIAQAFLSMLCHLKFAIFIFFSAWVLVMSVFVLFFLPETKNVPIEEMTDKVWKQHWFWKRFMDDDDHHHNIANGKNATV | – | – | did not show detectable glucose transport activity above the control
